Laboratory results: article PMC3955222

Substrate: O=C=O
Assay: protein film electrochemistry, KM for CO2 reduction at -560 mV
Assay type: biochemical, Carboxydothermus hydrogenoformans
Settings: [Ni-4Fe-4S] C-cluster active site C-cluster

B1: CODH IICh (Carboxydothermus hydrogenoformans Z-2901) (protein)
chain: AKQNLKSTDRAVQQMLDKAKREGIQTVWDRYEAMKPQCGFGETGLCCRHCLQGPCRINPFGDEPKVGICGATAEVIVARGLDRSIAAGAAGHSGHAKHLAHTLKKAVQGKAASYMIKDRTKLHSIAKRLGIPTEGQKDEDIALEVAKAALADFHEKDTPVLWVTTVLPPSRVKVLSAHGLIPAGIDHEIAEIMHRTSMGCDADAQNLLLGGLRCSLADLAGCYMGTDLADILFGTPAPVVTESNLGVLKADAVNVAVHGHNPVLSDIIVSVSKEMENEARAAGATGINVVGICCTGNEVLMRHGIPACTHSVSQEMAMITGALDAMILDYQCIQPSVATIAECTGTTVITTMEMSKITGATHVNFAEEAAVENAKQILRLAIDTFKRRKGKPVEIPNIKTKVVAGFSTEAIINALSKLNANDPLKPLIDNVVNGNIRGVCLFAGCNNVKVPQDQNFTTIARKLLKQNVLVVATGCGAGALMRHGFMDPANVDELCGDGLKAVLTAIGEANGLGGPLPPVLHMGSCVDNSRAVALVAALANRLGVDLDRLPVVASAAEAMHEKAVAIGTWAVTIGLPTHIGVLPPITGSLPVTQILTSSVKDITGGYFIVELDPETAADKLLAAINERRAGLGLPW
Km: 8.0 ± 1.6 mM
